Here are results for 1 molecule from publication doi:10.1101/2021.02.25.432905 (bioRxiv, 2021).

This experiment concerns the target A/California/7/2009 HA (recombinant HA, rHA) (Influenza A virus A/California/07/2009 …, UniProt C3W5X2).

B1: 350-145 (antibody, V domains shown)
VH: EVQLVESGGGLVQPGGSLRLSCSASGFTFSSYSMNWVRQAPGKGLEWLSYISSSSGSKYYADSVKGRFTISRDNAKNLVYLQMSSLRADDAAMYYCARSDYAVFYYGMDVWGQGTTVTVSS
VL: EIVMTQSPATLSVSPGERATLSCRASQSVSSNLAWYQQKPGQAPRLLIYGASTRATGIPARFSGSGSGTEFTLTISSLQSEDFAVYYCQQYYNWPPLTFGGGTKVEIK
For B1, the binding result is recorded as “binds”.
